Assay results taken from the supplement of paper PMC9112550, “Optimization of the antimicrobial peptide Bac7 by deep mutational scanning” (BMC Biology, 2022).

Test system: Escherichia coli TOP10
Assay: shrunken log2 fold change of peptide-encoding DNA abundance (4.5 h post-induction vs induction); higher = less antimicrobial activity (less host growth inhibition)
Conditions: time post-induction: 4.5 h; library: site-saturation at positions 5, 18, 19, 20
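Also: peptides expressed intracellularly from a pBAD plasmid library in pooled LB shake-flask culture, induced with 0.3% L-arabinose, DNA abundance read by NGS, three biological replicates, DESeq2 with apeglm shrinkage.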

Sequence | shrunken log2 fold change
RRIRWRPPRLPRPRPRPQWGPRP | 0.293
RRIRKRPPRLPRPRPRPILHPRP | -0.394
RRIRFRPPRLPRPRPRPTMCPRP | -0.274
RRIRDRPPRLPRPRPRPRKMPRP | 0.154
RRIRVRPPRLPRPRPRPSNAPRP | 0.111
RRIRTRPPRLPRPRPRPRWLPRP | 0.369
RRIRVRPPRLPRPRPRPVWVPRP | -0.123
RRIRPRPPRLPRPRPRPLLCPRP | 0.127
RRIRCRPPRLPRPRPRPHDNPRP | -0.356
RRIRNRPPRLPRPRPRPVRVPRP | 0.0666
RRIRLRPPRLPRPRPRPAMYPRP | -0.139
RRIRSRPPRLPRPRPRPCEEPRP | 0.00181
RRIRCRPPRLPRPRPRPQDLPRP | -0.472
RRIRNRPPRLPRPRPRPYSCPRP | -1.1
RRIRQRPPRLPRPRPRPTRKPRP | -0.0205
RRIRFRPPRLPRPRPRPAIHPRP | -0.478
RRIRTRPPRLPRPRPRPQGGPRP | 0.114
RRIRARPPRLPRPRPRPYWQPRP | 0.046
RRIRMRPPRLPRPRPRPAAQPRP | 1.12
RRIRLRPPRLPRPRPRPMWTPRP | -0.0582
RRIRKRPPRLPRPRPRPAFHPRP | 0.0641
RRIRCRPPRLPRPRPRPPPQPRP | 1.34
RRIRSRPPRLPRPRPRPTLDPRP | 0.47
RRIRLRPPRLPRPRPRPILGPRP | -0.0186
RRIRVRPPRLPRPRPRPKMHPRP | -0.198

Sequence | shrunken log2 fold change
RRIRHRPPRLPRPRPRPPHCPRP | -0.203
RRIRCRPPRLPRPRPRPFEHPRP | -0.792
RRIRERPPRLPRPRPRPHNDPRP | -0.335
RRIRGRPPRLPRPRPRPQNFPRP | 0.136
RRIRKRPPRLPRPRPRPFDKPRP | 0.132
RRIRARPPRLPRPRPRPATHPRP | 0.186
RRIRNRPPRLPRPRPRPNPEPRP | -0.224
RRIRFRPPRLPRPRPRPRKLPRP | 0.134
RRIRVRPPRLPRPRPRPDNWPRP | -0.343
RRIRWRPPRLPRPRPRPCKEPRP | -0.125
RRIRERPPRLPRPRPRPTREPRP | 0.329
RRIRSRPPRLPRPRPRPCLEPRP | -0.0107
RRIRKRPPRLPRPRPRPEGNPRP | 2.03
RRIRMRPPRLPRPRPRPLLCPRP | 0.473
RRIRERPPRLPRPRPRPNHIPRP | -0.42
RRIRHRPPRLPRPRPRPHYYPRP | -0.216
RRIRYRPPRLPRPRPRPNVKPRP | -0.386
RRIRPRPPRLPRPRPRPKYDPRP | -0.612
RRIRTRPPRLPRPRPRPLEGPRP | -0.0217
RRIRRRPPRLPRPRPRPTGVPRP | 0.616
RRIRWRPPRLPRPRPRPEKQPRP | 0.0441
RRIRERPPRLPRPRPRPWSCPRP | -0.11
RRIRVRPPRLPRPRPRPPSFPRP | 0.0364
RRIRSRPPRLPRPRPRPDNDPRP | -0.0528
RRIRARPPRLPRPRPRPSLLPRP | 0.321

Sequence | shrunken log2 fold change
RRIRNRPPRLPRPRPRPKNKPRP | -0.0876
RRIRGRPPRLPRPRPRPQWEPRP | 0.0931
RRIRDRPPRLPRPRPRPLHLPRP | -0.0348
RRIRPRPPRLPRPRPRPAFYPRP | -0.00911
RRIRWRPPRLPRPRPRPNDHPRP | -0.0566
RRIRVRPPRLPRPRPRPWTMPRP | -0.134
RRIRYRPPRLPRPRPRPKCTPRP | -0.0162
RRIRNRPPRLPRPRPRPQCQPRP | -0.0453
RRIRHRPPRLPRPRPRPNRIPRP | -0.46
RRIRQRPPRLPRPRPRPTQKPRP | 0.0237
RRIRKRPPRLPRPRPRPTIHPRP | -0.087
RRIRYRPPRLPRPRPRPLEKPRP | 0.0601
RRIRGRPPRLPRPRPRPCLQPRP | 0.264
RRIRERPPRLPRPRPRPMDIPRP | -0.235
RRIRCRPPRLPRPRPRPVMHPRP | -0.212
RRIRARPPRLPRPRPRPSFKPRP | -0.109
RRIRCRPPRLPRPRPRPAQLPRP | -0.169
RRIRQRPPRLPRPRPRPLSPPRP | -0.109
RRIRYRPPRLPRPRPRPMDFPRP | -0.205
RRIRWRPPRLPRPRPRPDNYPRP | -0.00844
RRIRTRPPRLPRPRPRPCNPPRP | -0.0887
RRIRHRPPRLPRPRPRPQMHPRP | -0.00258
RRIRNRPPRLPRPRPRPYTGPRP | -0.0137
RRIRQRPPRLPRPRPRPDYWPRP | 0.156
RRIRQRPPRLPRPRPRPEMYPRP | -0.173
